Assay results reported in patent US5262522, “Receptor for oncostatin M and leukemia inhibitory factor” (Immunex Corporation, dated 1993).
One block for each binder: values may come before it.

B1: Receptor comprising gp130 (B10G) and LIF-R (pHLIFR-65) co-expressed on COS-7 cells (receptor)
chain 1: ELLDPCGYISPESPVVQLHSNFTAVCVLKEKCMDYFHVNANYIVWKTNHFTIPKEQYTIINRTASSVTFTDIASLNIQLTCNILTFGQLEQNVYGITIISGLPPEKPKNLSCIVNEGKKMRCEWDGGRETHLETNFTLKSEWATHKFADCKAKRDTPTSCTVDYSTVYFVNIEVWVEAENALGKVTSDHINFDPVYKVKPNPPHNLSVINSEELSSILKLTWTNPSIKSVIILKYNIQYRTKDASTWSQIPPEDTASTRSSFTVQDLKPFTEYVFRIRCMKEDGKGYWSDWSEEASGITYEDRPSKAPSFWYKIDPSHTQGYRTVQLVWKTLPPFEANGKILDYEVTLTRWKSHLQNYTVNATKLTVNLTNDRYLATLTVRNLVGKSDAAVLTIPACDFQATHPVMDLKAFPKDNMLWVEWTTPRESVKKYILEWCVLSDKAPCITDWQQEDGTVHRTYLRGNLAESKCYLITVTPVYADGPGSPESIKAYLKQAPPSKGPTVRTKKVGKNEAVLEWDQLPVDVQNGFIRNYTIFYRTIIGNETAVNVDSSHTEYTLSSLTSDTLYMVRMAAYTDEGGKDGPEFTFTTPKFAQGEIEAIVVPVCLAFLLTTLLGVLFCFNKRDLIKKHIWPNVPDPSKSHIAQWSPHTPPRHNFNSKDQMYSDGNFTDVSVVEIEANDKKPFPEDL
chain 2: QKKGAPHDLKCVTNNLQVWNCSWKAPSGTGRGTDYEVCIENRSRSCYQLEKTSIKIPALSHGDYEITINSLHDFGSSTSKFTLNEQNVSLIPDTPEILNLSADFSTSTLYLKWNDRGSVFPHRSNVIWEIKVLRKESMELVKLVTHNTTLNGKDTLHHWSWASDMPLECAIHFVEIRCYIDNLHFSGLEEWSDWSPVKNISWIPDSQTKVFPQDKVILVGSDITFCCVSQEKVLSALIGHTNCPLIHLDGENVAIKIRNISVSASSGTNVVFTTEDNIFGTVIFAGYPPDTPQQLNCETHDLKEIICSWNPGRVTALVGPRATSYTLVESFSGKYVRLKRAEAPTNESYQLLFQMLPNQEIYNFTLNAHNPLGRSQSTILVNITEKVYPHTPTSFKVKDINSTAVKLSWHLPGNFAKINFLCEIEIKKSNSVQEQRNVTIKGVENSSYLVALDKLNPYTLYTFRIRCSTETFWKWSKWSNKKQHLTTEASPSKGPDTWREWSSDGKNLIIYWKPLPINEANGKILSYNVSCSSDEETQSLSEIPDPQHKAEIRLDKNDYIISVVAKNSVGSSPPSKIASMEIPNDDLKIEQVVGMGKGILLTWHYDPNMTCDYVIKWCNSSRSEPCLMDWRKVPSNSTETVIESDEFRPGIRYNFFLYGCRNQGYQLLRSMIGYIEELAPIVAPNFTVEDTSADSILVKWEDIPVEELRGFLRGYLFYFGKGERDTSKMRVLESGRSDIKVKNITDISQKTLRIADLQGKTSYHLVLRAYTDGGVGPEKSMYVVTKENSVGLIIAILIPVAVAVIVGVVTSILCYRKREWIKETFYPDIPNPENCKALQFQKSVCEGSSALKTLEMNPCTPNNVEVLETRSAFPKIEDTEIISPVAERPEDRSDAEPENHVVVSYCPPIIEEEIPNPAADEAGGTAQVIYIDVQSMYQPQAKPEEKKKKSRSSRSKI
B4: Recombinant human leukemia inhibitory factor (LIF) (ligand)
chain: not shown
modifications: radioiodinated (125I) where used as the labelled ligand; non-radiolabeled where used as competitor

Legend:
[1] = target: B4; assay: Scatchard analysis of 125I-LIF binding to COS-7 cells co-transfected with B10G and pHLIFR-65 (curve A), phthalate oil separation
Description: (§1) Host cells transfected with vector(s) encoding LIF-R or gp130 as described below were assayed for the ability to bind LIF. The host cells were the monkey kidney cell line designated COS-7, described by Glutzman, *Cell* 23:175 (1981). In separate transfections, COS-7 cells were transfected with the following combinations of vectors. The different types of transfected cells (and non-transfected control cells) are designated A–F as shown below, and the curves representing the LIF-binding assay data for each transfected or control cell type are also labeled A–F in FIG. 1.
(§2) Briefly, the COS-7 host cells were released from 10 cm tissue culture plates two days after transfection by incubation in non-enzymatic cell dissociation buffer (Sigma) at 37° C. for 30–60 minutes. Cells were then washed with the above-described binding medium and resuspended in binding medium at 5 ×10^6 cells/ml. 50 μl aliquots of the cells were incubated with serial dilutions of ^125I-LIF at room temperature for one hour with agitation (in the presence or absence of a 200-fold excess of unlabeled LIF) in a total volume of 150 μl. The unlabeled LIF allowed for calculation of the non-specific background binding of LIF. […]

[2] = target: B4; assay: 125I-LIF binding to COS-7 cells transfected with B10G and CAV (curve F against curve E), phthalate oil separation, Scatchard
Description: as §1, §2

[3] = target: B4; assay: Scatchard analysis of 125I-LIF binding to COS-7 cells transfected with pHLIFR-65 and CAV (curve B, site 2), phthalate oil separation
Description: as §1, §2

[4] = target: B1; assay: Scatchard analysis of 125I-LIF binding to co-transfected COS-7 cells preincubated with oncostatin M as competitor (curve C)
Description: as §1, §2

Binder: B1
Kd [1]: 0.9 nM

binding result [2]: no binding
B2: Human gp130 encoded by plasmid B10G, expressed on COS-7 cells (receptor)
chain: ELLDPCGYISPESPVVQLHSNFTAVCVLKEKCMDYFHVNANYIVWKTNHFTIPKEQYTIINRTASSVTFTDIASLNIQLTCNILTFGQLEQNVYGITIISGLPPEKPKNLSCIVNEGKKMRCEWDGGRETHLETNFTLKSEWATHKFADCKAKRDTPTSCTVDYSTVYFVNIEVWVEAENALGKVTSDHINFDPVYKVKPNPPHNLSVINSEELSSILKLTWTNPSIKSVIILKYNIQYRTKDASTWSQIPPEDTASTRSSFTVQDLKPFTEYVFRIRCMKEDGKGYWSDWSEEASGITYEDRPSKAPSFWYKIDPSHTQGYRTVQLVWKTLPPFEANGKILDYEVTLTRWKSHLQNYTVNATKLTVNLTNDRYLATLTVRNLVGKSDAAVLTIPACDFQATHPVMDLKAFPKDNMLWVEWTTPRESVKKYILEWCVLSDKAPCITDWQQEDGTVHRTYLRGNLAESKCYLITVTPVYADGPGSPESIKAYLKQAPPSKGPTVRTKKVGKNEAVLEWDQLPVDVQNGFIRNYTIFYRTIIGNETAVNVDSSHTEYTLSSLTSDTLYMVRMAAYTDEGGKDGPEFTFTTPKFAQGEIEAIVVPVCLAFLLTTLLGVLFCFNKRDLIKKHIWPNVPDPSKSHIAQWSPHTPPRHNFNSKDQMYSDGNFTDVSVVEIEANDKKPFPEDL

Kd [3]: 2.4 nM
B3: Single-polypeptide chain human LIF-R encoded by pHLIFR-65, expressed on COS-7 cells (receptor)
chain: QKKGAPHDLKCVTNNLQVWNCSWKAPSGTGRGTDYEVCIENRSRSCYQLEKTSIKIPALSHGDYEITINSLHDFGSSTSKFTLNEQNVSLIPDTPEILNLSADFSTSTLYLKWNDRGSVFPHRSNVIWEIKVLRKESMELVKLVTHNTTLNGKDTLHHWSWASDMPLECAIHFVEIRCYIDNLHFSGLEEWSDWSPVKNISWIPDSQTKVFPQDKVILVGSDITFCCVSQEKVLSALIGHTNCPLIHLDGENVAIKIRNISVSASSGTNVVFTTEDNIFGTVIFAGYPPDTPQQLNCETHDLKEIICSWNPGRVTALVGPRATSYTLVESFSGKYVRLKRAEAPTNESYQLLFQMLPNQEIYNFTLNAHNPLGRSQSTILVNITEKVYPHTPTSFKVKDINSTAVKLSWHLPGNFAKINFLCEIEIKKSNSVQEQRNVTIKGVENSSYLVALDKLNPYTLYTFRIRCSTETFWKWSKWSNKKQHLTTEASPSKGPDTWREWSSDGKNLIIYWKPLPINEANGKILSYNVSCSSDEETQSLSEIPDPQHKAEIRLDKNDYIISVVAKNSVGSSPPSKIASMEIPNDDLKIEQVVGMGKGILLTWHYDPNMTCDYVIKWCNSSRSEPCLMDWRKVPSNSTETVIESDEFRPGIRYNFFLYGCRNQGYQLLRSMIGYIEELAPIVAPNFTVEDTSADSILVKWEDIPVEELRGFLRGYLFYFGKGERDTSKMRVLESGRSDIKVKNITDISQKTLRIADLQGKTSYHLVLRAYTDGGVGPEKSMYVVTKENSVGLIIAILIPVAVAVIVGVVTSILCYRKREWIKETFYPDIPNPENCKALQFQKSVCEGSSALKTLEMNPCTPNNVEVLETRSAFPKIEDTEIISPVAERPEDRSDAEPENHVVVSYCPPIIEEEIPNPAADEAGGTAQVIYIDVQSMYQPQAKPEEKKKKSRSSRSKI

Binder: B4
KD after preincubation of the cells with non-radiolabeled oncostatin M [4]: 4.2 nM
